Assay results as given in patent publication US20120058906A1.

Legend:
[1] = biological target: rHuman P-Cadherin/Fc Chimera, CF (R&D Systems Cat#861-PC) (human) (UniProt P22223); test: ECL (MSD multi-spot), Fab 170 nM; blank 262
[2] = biological target: rHuman Notch-1/Fc Chimera, CF (R&D Systems Cat#3647-TK) (human) (UniProt P46531); test: ECL (MSD multi-spot), Fab 170 nM; blank 262
[3] = biological target: rHuman HGF R/c-MET/Fc Chimera, CF (R&D Systems Cat#358-MT/CF) (human) (UniProt P08581); test: ECL (MSD multi-spot), Fab 170 nM; blank 262
[4] = biological target: rHuman IGF-1 sR (IGF-1 sR), CF (R&D Systems Cat#391-GR) (human) (UniProt P08069); test: ECL (MSD multi-spot), Fab 170 nM; blank 262
[5] = biological target: rHuman Erythropoietin R/Fc Chimera, CF (R&D Systems Cat#963-ER) (human) (UniProt P19235); test: ECL (MSD multi-spot), Fab 170 nM; blank 262
[6] = biological target: rHuman EGF R/Fc Chimera, CF (R&D Systems Cat#344-ER) (human) (UniProt P00533); test: ECL (MSD multi-spot), Fab 170 nM; blank 262
[7] = biological target: rHuman CD44/Fc Chimera, CF (R&D Systems Cat#3660-CD) (human) (UniProt P16070); test: ECL (MSD multi-spot), Fab 170 nM; blank 262
[8] = biological target: rHuman ErbB2/Fc Chimera, CF (R&D Systems Cat#1129-ER) (human) (UniProt P04626); test: ECL (MSD multi-spot), Fab 170 nM; blank 262
[9] = biological target: rHuman P-Cadherin/Fc Chimera, CF (R&D Systems Cat#861-PC) (human) (UniProt P22223); test: ECL (MSD multi-spot), Fab 85.0 nM; blank 292
[10] = biological target: rHuman Notch-1/Fc Chimera, CF (R&D Systems Cat#3647-TK) (human) (UniProt P46531); test: ECL (MSD multi-spot), Fab 85.0 nM; blank 292
[11] = biological target: rHuman HGF R/c-MET/Fc Chimera, CF (R&D Systems Cat#358-MT/CF) (human) (UniProt P08581); test: ECL (MSD multi-spot), Fab 85.0 nM; blank 292
[12] = biological target: rHuman IGF-1 sR (IGF-1 sR), CF (R&D Systems Cat#391-GR) (human) (UniProt P08069); test: ECL (MSD multi-spot), Fab 85.0 nM; blank 292
[13] = biological target: rHuman Erythropoietin R/Fc Chimera, CF (R&D Systems Cat#963-ER) (human) (UniProt P19235); test: ECL (MSD multi-spot), Fab 85.0 nM; blank 292
[14] = biological target: rHuman EGF R/Fc Chimera, CF (R&D Systems Cat#344-ER) (human) (UniProt P00533); test: ECL (MSD multi-spot), Fab 85.0 nM; blank 292
[15] = biological target: rHuman CD44/Fc Chimera, CF (R&D Systems Cat#3660-CD) (human) (UniProt P16070); test: ECL (MSD multi-spot), Fab 85.0 nM; blank 292
[16] = biological target: rHuman ErbB2/Fc Chimera, CF (R&D Systems Cat#1129-ER) (human) (UniProt P04626); test: ECL (MSD multi-spot), Fab 85.0 nM; blank 292
[17] = biological target: rHuman P-Cadherin/Fc Chimera, CF (R&D Systems Cat#861-PC) (human) (UniProt P22223); test: ECL (MSD multi-spot), Fab 340 nM; blank 554
[18] = biological target: rHuman Notch-1/Fc Chimera, CF (R&D Systems Cat#3647-TK) (human) (UniProt P46531); test: ECL (MSD multi-spot), Fab 340 nM; blank 554
[19] = biological target: rHuman HGF R/c-MET/Fc Chimera, CF (R&D Systems Cat#358-MT/CF) (human) (UniProt P08581); test: ECL (MSD multi-spot), Fab 340 nM; blank 554
[20] = biological target: rHuman IGF-1 sR (IGF-1 sR), CF (R&D Systems Cat#391-GR) (human) (UniProt P08069); test: ECL (MSD multi-spot), Fab 340 nM; blank 554
[21] = biological target: rHuman EGF R/Fc Chimera, CF (R&D Systems Cat#344-ER) (human) (UniProt P00533); test: ECL (MSD multi-spot), Fab 340 nM; blank 554
[22] = biological target: rHuman P-Cadherin/Fc Chimera, CF (R&D Systems Cat#861-PC) (human) (UniProt P22223); test: ECL (MSD multi-spot), Fab […]; blank 162
[23] = biological target: rHuman Notch-1/Fc Chimera, CF (R&D Systems Cat#3647-TK) (human) (UniProt P46531); test: ECL (MSD multi-spot), Fab […]; blank 162
[24] = biological target: rHuman HGF R/c-MET/Fc Chimera, CF (R&D Systems Cat#358-MT/CF) (human) (UniProt P08581); test: ECL (MSD multi-spot), Fab […]; blank 162
[25] = biological target: rHuman IGF-1 sR (IGF-1 sR), CF (R&D Systems Cat#391-GR) (human) (UniProt P08069); test: ECL (MSD multi-spot), Fab […]; blank 162
[26] = biological target: rHuman Erythropoietin R/Fc Chimera, CF (R&D Systems Cat#963-ER) (human) (UniProt P19235); test: ECL (MSD multi-spot), Fab […]; blank 162
[27] = biological target: rHuman EGF R/Fc Chimera, CF (R&D Systems Cat#344-ER) (human) (UniProt P00533); test: ECL (MSD multi-spot), Fab […]; blank 162
[28] = biological target: rHuman CD44/Fc Chimera, CF (R&D Systems Cat#3660-CD) (human) (UniProt P16070); test: ECL (MSD multi-spot), Fab […]; blank 162
[29] = biological target: rHuman ErbB2/Fc Chimera, CF (R&D Systems Cat#1129-ER) (human) (UniProt P04626); test: ECL (MSD multi-spot), Fab […]; blank 162

Chain of rHuman Erythropoietin R/Fc Chimera, CF (R&D Systems Cat#963-ER) (human) (P19235 25-250, change not shown): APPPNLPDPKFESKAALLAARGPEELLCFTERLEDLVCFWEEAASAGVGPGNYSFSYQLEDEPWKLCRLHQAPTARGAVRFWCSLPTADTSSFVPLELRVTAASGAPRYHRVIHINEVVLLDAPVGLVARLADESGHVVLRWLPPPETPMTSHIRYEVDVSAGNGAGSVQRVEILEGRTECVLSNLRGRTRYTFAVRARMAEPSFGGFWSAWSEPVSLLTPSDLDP

Fab VH4-34_IGHD7-27*01_IGHJ4*01 & V4-6_IGLJ4*01
ECL signal [1]: 744 ECL signal
ECL signal [2]: 816 ECL signal
ECL signal [3]: 757 ECL signal
ECL signal [4]: 832 ECL signal
ECL signal [5]: 790 ECL signal
ECL signal [6]: 826 ECL signal
ECL signal [7]: 660 ECL signal
ECL signal [8]: 964 ECL signal
ECL signal [9]: 709 ECL signal
ECL signal [10]: 780 ECL signal
ECL signal [11]: 998 ECL signal
ECL signal [12]: 891 ECL signal
ECL signal [13]: 817 ECL signal
ECL signal [14]: 1000 ECL signal
ECL signal [15]: 693 ECL signal
ECL signal [16]: 844 ECL signal
ECL signal [17]: 1160 ECL signal
ECL signal [18]: 1210 ECL signal
ECL signal [19]: 1240 ECL signal
ECL signal [20]: 1040 ECL signal
ECL signal [21]: 1210 ECL signal
ECL signal [22]: 421 ECL signal
ECL signal [23]: 649 ECL signal
ECL signal [24]: 607 ECL signal
ECL signal [25]: 646 ECL signal
ECL signal [26]: 494 ECL signal
ECL signal [27]: 528 ECL signal
ECL signal [28]: 522 ECL signal
ECL signal [29]: 866 ECL signal
